The text below walks through data of the DeepSol protein solubility set.

This series can be described thus: soluble on expression in E. coli; label from the status in PepcDB or PDB records.
Take “MSLSIYKDINIASAKPSLKERKNIKHYALDHLNIDEKNNAPLFKTLLEDAMRVSSKEILLIVGGSSFYLKSILEGLSRMPKLSGEEVVKIEREIATLSNPYIFLKSIDPNMAFKIHPNDTYRTHKALEIFYATCTPPSEYFKANPKKPFEHAISLFALSIEKSALHNNIKRRTKNMLHSGLVEEIKALYTQYPKDSQPFKAIGVKESVLFLEKRLTLKELEEAITSNTMKLAKRQNTFNKTQFNNLYVGSAEEVRHAILKHSKSGIKGEGHHHHHH”: the “soluble on expression in E. coli” value is “not soluble”.
Then “MGSDKIHHHHHHMFVMLAMANVTTSAPRAVAPAYDPRLVRAAVAMNENDLPTAEPLLRALLKDDPFDVRAIRLFAELAGRIGRYQDAENLLRRAIELAPQFTAARANLALVLYRTNRAPEALEELAKVTADDPENVGHANLQAAAYGRIGEFDEALALYEQVLKQAAAQPRVWMSYGHMLKTVGRQADGVAAYRRAIELLPTLGEAWWSLANLKTVRFDDADIAAMEAALRVPDLAPEDQWHLDFALGKAFEDRGEAERSFRHYAAGNALRKKRMPYQAEEITAQVDRAVAAFTPATVAGLSGKGCEAGDPIFVLGMPRAGSTLVEQILASHSMVEGTSELADIGYLARTVEGYPAGLSSLQGNDLRALGEQYLARTRIQRHTDRPLFVDKMPNNWIHVPFIRAILPNAKIVDARRHPLSCCFSNFKQHFARGQGFSYSLEDMGRYYRDYVRAMAHFDKVIPGAVHRVIYERMVEDTEAEVRALLAYCGLAFEDNCLAFHRTERAVRTASSEQVRQPIFRDGTDAWKAFEPWLGELKVALGAVQDFYPEAPPFD”, with “not soluble”; and “MAEFLDDQETRLCDNCKKEIPVFNFTIHEIHCQRNIGMCPTCKEPFPKSDMETHMAAEHCQVTCKCNKKLEKRLLKKHEETECPLRLAVCQHCDLELSILKLKEHEDYCGARTELCGNCGRNVLVKDLKTHPEVCGREGEEKRNEVAIPPNAYDESWGQDGIWIASQLLRQIEALDPPMRLPRRPLRAFESDVFHNRTTNQRNITAQVSIQNNLFEEQERQERNRGQQPPKEGGEESANLDFMLALSLQNEGQASSVAEQDFWRAVCEADQSHGGPRSLSDIKGAADEIMLPCEFCEELYPEELLIDHQTSCNPSRALPSLNTGSSSPRGVEEPDVIFQNFLQQAASNQLDSLMGLSNSHPVEESIIIPCEFCGVQLEEEVLFHHQDQCDQRPATATNHVTEGIPRLDSQPQETSPELPRRRVRHQGDLSSGYLDDTKQETANGPTSCLPPSRPINNMTATYNQLSRSTSGPRPGCQPSSPCVPKLSNSDSQDIQGRNRDSQNGAIAPGHVSVIRPPQNLYPENIVPSFSPGPSGRYGASGRSEGGRNSRVTPAAANYRSRTAKAKPSKQQGAGDAEEEEEE”, with “soluble”; and “MPFRPQVIIGELMKTFGTNTNALPMSREETKTVEKFTRILKDAETDDLLIQSDDEEEVFGGIVDEEDWKPDDDDPSACVVPDKVNFSSGAAIDVAMVHSAVEFMTDVRTKKLRSFASMQRRYRFIKTQHDMQKLRVFAKNNEIQCSRVSQFSTLSGLLRTKVFEAIDDRISIDKFTLRRLAVQLNDEHVHIEGFQASDGWLKKWKKTNGLVSRHVTTFITRANYVNKELTEQAAKKFVEEVKAELATLDPDVVYNCDQSGFTKEQYCKRTLAPKGVKRVERLVQSKDALTHSYTILPMLSASGKLAPKLYVVLQEKGGKFPKKGHFSPDNLIIRANTSHIMNKQLMVDWVESAVCDPSMPTEVVLLLDAWPAWKNEGDVQAAALSGNTVHVRSIPPGATSFIQPCDLYFFCPLKNFVKKVNAYIIYSGITFKTSERDNLLRVISAVYRVFRAPIFQSCWKYGWIQGGYIDDQHVKVETPSKFCFKVSGYCSQKKTRDTMCQDTAFLLCPYCKKVLCFNHWVGCGFPAHKCKC”, with “not soluble”.
Then “MGSDKIHHHHHHPWRLLTPDQRYQKRQSQLKSTMSDFFTWCESVHALPQSKFGRAIDYALSQREAMENVLLDGRLELSNNRVERAVKELVIGRKNWLFSTSFKGARSSGIILSVMRSAEANGLDCRKYLEYLFTELPNLSVPGDSKALQDYLPWSSQVRAICAR”, with “not soluble”.
Consider “NVQHQLAQFQQLQQQAQAISVQKQTVEMQINETQKALEELSRAADDAEVYKSSGNILIRVAKDELTEELQEKLETLQLREKTIERQEERVMKKLQEMQVNIQEAMKGAG”, for which the “soluble on expression in E. coli” value is on record as “soluble”.
Then “MAHHHHHHMMAIRNMLRKIIIKHGKVANAVWVPKRFINMNPTGNEEKVTQERNKRDYILSLDEALYLSKEMGIKTTTEIQKIIMRSPPFSPDMSPFLIDNFLSSANKDRHSDEIDQIDLKLKELQERDSNPEESEQGEDEGAVENSKINISHDREENIINKILIDKFNKKRGKTFIHNDMEWLEESEGIGTNKRSCAYVYIKRGSGIVKVNDEEDLYIRWPYFYNRMDVLEPFYVTNTSCVFDVFIKLKGGGISGQSKAARLAIGRALLNACPLIYDDLQQHHILYEDMRQKFPKMPGRKKSRAMKQWSKR”, with “not soluble”; and “CSPVRERRLEHQLEPGDTLAGLALKYGVTMEQIKRANRLYTNDSIFLKKTLYIPILTEPRDLFN”, with “soluble”; and “MGSDKIHHHHHHMMKLSTMKKVVATVDKKWRSPLAEFILERWGFDRHSVFYWRASANFIFMFQHHGKKYYLRFNDSCERNLTLIKEELKLVQYLGSQALAIAQPVLSKNNNLVEVVITPIGTFYAVVFEALDGEHLSFEEMNEEQLFLWGEMLGTIHENLKNVPNDLAIKRPSWKDDLEKVKEWIPSNEIAAMKELEMISEWADQLPITKENFGIIHYDFELDNVRFNEITIGALDFDDCAYYWYVADIVYALRDAGKFRVTTPAIKTFIKGYKSSTFLEEELLEEANGFERLHHLVSFARLLRSVDKDYSKEEPGYLMDLRKNLVSLINNYRLSFEQNHK”, with “not soluble”.
The result for “MYVSSPTLTDKVSKMICQDILTGELKPGQKLVVAELKEKYNVGASPIREALVQLSWSKYVKLAPQKGCWVAPVCKHELNDLYESLRMTASFLLKKAIMTGDENWELDVLTSYHKLSRVNLDQGFCWREWEERHYHFLEALLEGANSHNLFTFFRDILNQIKRYHYFAMQVLGTNNQGHCNIDEQEMIMKLSLSKNSDDAVQFLDRYLLKSLQCVETAIDNPL” reads “soluble”; that for “MKKLLAGVLVSAIAFAKPVFMDAEWAKQFCEVWNNTPELVEKLGKSESWTEVPERKLFLYRKDCGPEKQIQLTIKNENGRAVCVYGGWKKDEKTDNDFLMYADTKRWLEMGRKEYGPMKAMLFGRLKFEGPRFVAMKNMGPFEAFLDKIDEVEADTSRCP”, “not soluble”.
The result for “MSLKLLHERMMHSLARYPRQTAVVDEQDALSYEALELRIREFVAMLCALGVGQGQRILLWAHKSVDLVAVMQAALRLGVVYVPVDPLSPVSRLEKIAGDSQAVLVLCTAARLEELAGSALAQVRSVVLDDPASAGYWRNIDTGSSVVPTLAIQPDDLAYILYTSGSTGVPKGVALSHGNALAFVDWACERYCFQPGERFANHAPLHFDLSVLDIYCALNVGATVCLVPESIAFSPRLLTDFIRQHEISIWYSVPSVLMMMMQDGDLLSDIQDTLRVLLFAGEPFPVKHLRDLRAAYADVRLANLFGPTETNVCTAFEVGAIDPERVLPVPIGTAASGNQVWAQKPDGSRCAVGEEGELVVQGPTVMLGYFAKPAQEGPYKTGDMVRQRPDGNYEYLGRRDDMLKVRGNRIERGEVEAALLAHPQVSEAAVLVVGEGMNAQLWGVLVAHTRDALSLIDLKRHCAQRLPRYMIIDKVLCLDALPRNANGKVDRFALARQVEGHHHHHH” reads “soluble”; that for “MGSDKIHHHHHHMNTIGERLKYLRKLNNLTQKQVAEKTGVQRGNISHYEKNDFLPSRVALISFANFFKTNYDWIVYGKGAIPKSIDEVMYAKSNSIAECNNGAAVDFSKRLIFTMKYFHETIDGLCLKLNISKDIFHEILIKKNVSAFDLFKICNYFNVSMDWMFNGNITYLKSDAKLQQAYLMNSKGNKPLSYDNHGMVQCTCEEKKLLIFFENLNTKDKSLVIDILNSVNNQASMDIQKLIK”, “not soluble”.
“MGSDKIHHHHHHVSEALLEQAVSDVMPTKLAIIMRGLPGSGKSYWVEQFITSQGIEQAIHIRQHGLFSTDRYFYQQGQYRFNPQKIGQYHQANLTAFIQALARKEPIVICDNTNIAKWEFMAYEAAAKALGYQVKVVLVGQPDNDQHQQLCAQRNQHQVSLAHIQKMAQLFEE”: the “soluble on expression in E. coli” value was “not soluble”.
For the sequence “MRFLIPIIFTTLPLCLQAQEDPCASAPSEAAKIMCKQIHRWDDGARAASKKKKIALPPGMAKGMAAEFAPIASNIYQCMDLPCLCSYLRGTASGNGCTLPNGRPLQKSVRKEYRTLTDDERNRLHAAFRALKNNGEYERIGRIHSQMSAAGGAHSGPAFLPWHREFVKRVEFALRQVDPTVNLPYWDSTLDSRLPRPADTIMFSDYLMGSTGLVNDGPFTNWRTLAGRAQILRAVGAQGAPLSQNDIDFVMRQTQIDQVLSFTAPQQGCPYRTDFNCLEYTHGNVHIFVGGDMFDTATSSNDPSFFLHHAFIDFVWEEWRLARQSRADREIAFPPDNQLCASAQHFGASPMQPFSPMRNIDGLSNKYTDNLYSYAPRPTCQAGGDCGSKFLFCDTSTGAARCVSRIRPGSQCGQFRVNPCFSGICQNGVCVLSSTAPRPTPAPTTPTPQNPVQSQESCFNENQCCASWAASGECSRNTAYMNEWCKASCGVCKPKYRLADDCTDRHTQCSSWSRSGECTKNQLWMTENCRKSCNKCGRSRAQECGGGGTTVTTTTPAPAQQCDNSDGCFNENVCCAVWGLMGECRKNTRYMACNCRVSCGHCYPEDYNYGSCVDYHRSCAGWARVGECQKNPWMAENCRSSCNSCYTQSELRRMCGTTAGSVAPVAQVRQTNPSRQPPRGGWGRDDFGDNGGWGGNGGGGWGNNDPWGGSRWGGGRGGWGGGGWGGGGWGKRSIRAANASISMPSFDPDLL”, the “soluble on expression in E. coli” value is on record as “not soluble”.
The result for “MTADANKSESLLCMDKAREAIKSGDTDKARRMLLKAKKLDPGQNIEFLTKKIDDMTNNTSSSSQTSSSRASEERSYAHDDHYDDPNLRNRKARSPVKKNGKTEPEPKQRSASRTPKLGVDYTSEQKELVERIRHCKDYYEILKIDKKASDDDIRKEYRKLALKLHPDKCRAPHATEAFKALGNAYAVLSDTDKRRQYDQYGAEAANSHTPTTRRRGGGHGAFFEHDYAHGFEAEFTPEEIFNMFFGGGFPTEQVRRRARYAQQQQYHHYEQQQSPYGPLLQLLPLIAIMVIGLLAQLMVGEPAYSLHQTSKFTIKRLTADLRVPYFVRTDFETSYRGRIRQVEQQVEDDYIQNLRMNCYKEQNLKETKLYRARWMRDEAMMRDAERTPLPSCIRLNEIYSH” reads “soluble”.
The result for “MGSDKIHHHHHHMTEYKKILVVINPTVDHQAALARAVELATKSNASITAFLSIYDFSYEMTSILSSHEREAMRQGVIDQRSAWLDTAIAPFNSAGVAIDSKVIWHNRPFESVINCALEGQYDLIVKSTHEHDKLKAVIFTPTDWHLMRKAPMPVLMVKEHDWPVAGKILCALNVASEDSEHQTLNGKIIEHAKDLATKFSADVHLVNGYPGTPVNLAIELPDFDAHAYNNNIRMQHQSRVECLAQAYDIPLDRCHVEEGLPEDVIPEVADRIDAELVILGTVGRTGFSAALIGNTAEHVIDSIRCDLLAIKPEGYVSPLAE” reads “not soluble”; that for “MSLSSPNLSFYYNECERFESFLKNHHLHLESFHPYLEKAFFEMVLNGGKRFRPKLFLAVLCALVGQKDYSNQQTEYFKIALSIECLHTYSLIHDDLPCMDNAALRRNHPTLHAKYDETTAVLIGDALNTYSFELLSNALLESHIIVELIKILSANGGIKGMILGQALDCYFENTPLNLEQLTFLHEHKTAKLISASLIMGLVASGIKDEELFKWLQAFGLKMGLCFQVLDDIIDVTQDEEESGKTTHLDSAKNSFVNLLGLERANNYAQTLKTEVLNDLDALKPAYPLLQENLNALLNTLFKGEGHHHHHH”, “soluble”.
